Experimental data: paper PMC4072576

Target: FLAG-ctxIII coexpressed in E. coli with His-ctxI or His-ctxII (Dictyostelium discoideum)
Test: AUC

Sequence of His-ctxI (recombinant N-terminal His-tagged cortexillin I) (Q54HG2 whole entry): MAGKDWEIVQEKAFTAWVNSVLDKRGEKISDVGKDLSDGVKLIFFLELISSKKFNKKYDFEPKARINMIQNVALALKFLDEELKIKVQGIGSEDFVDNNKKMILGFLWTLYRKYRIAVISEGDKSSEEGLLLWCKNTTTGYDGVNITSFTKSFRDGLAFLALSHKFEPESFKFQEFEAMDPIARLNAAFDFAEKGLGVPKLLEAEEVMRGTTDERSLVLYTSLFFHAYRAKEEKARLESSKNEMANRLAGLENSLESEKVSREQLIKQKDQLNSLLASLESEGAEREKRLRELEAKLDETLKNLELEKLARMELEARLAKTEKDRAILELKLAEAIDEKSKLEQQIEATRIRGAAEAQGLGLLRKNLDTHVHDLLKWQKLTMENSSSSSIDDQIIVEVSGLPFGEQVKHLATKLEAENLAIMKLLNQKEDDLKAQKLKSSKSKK
Sequence of His-ctxII (recombinant N-terminal His-tagged cortexillin II) (Q550R2 whole entry): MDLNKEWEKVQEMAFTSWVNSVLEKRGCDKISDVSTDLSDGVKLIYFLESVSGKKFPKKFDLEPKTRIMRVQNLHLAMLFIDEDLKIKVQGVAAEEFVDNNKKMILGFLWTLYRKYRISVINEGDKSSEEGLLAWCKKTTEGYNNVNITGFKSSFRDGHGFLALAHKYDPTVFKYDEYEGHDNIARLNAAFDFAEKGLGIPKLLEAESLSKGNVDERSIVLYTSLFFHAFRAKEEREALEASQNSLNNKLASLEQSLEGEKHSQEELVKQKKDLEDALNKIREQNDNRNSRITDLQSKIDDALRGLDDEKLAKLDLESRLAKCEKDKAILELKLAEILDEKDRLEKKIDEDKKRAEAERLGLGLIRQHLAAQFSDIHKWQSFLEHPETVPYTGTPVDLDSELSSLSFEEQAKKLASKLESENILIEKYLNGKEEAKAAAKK

Row | Substance | major peak (heterodimer), percent of total protein [%]
1 | His-ctxII (recombinant N-terminal His-tagged cortexillin II) (from UniProt Q550R2 1-441) (natural protein) | 70
2 | His-ctxI (recombinant N-terminal His-tagged cortexillin I) (from UniProt Q54HG2 1-444) (natural protein) | 60
